These results are taken from patent US20120165211A1, “Human Antibodies Cross-Reacting With A Bacterial And A Self Antigen From Atherosclerotic Plaques” (priority 2007, published 2012).

The target in test [1] is T1, recombinant transgelin (rTAGLN-Origene cod: TP302448) (human, UniProt Q01995 1-201).
T1 construct: also called commercial transgelin 1; human transgelin
Kind of test: western blot on human transgelin (referred back to). On the technique in general: A western blot detects proteins with antibodies after separation by electrophoresis.

Test [2] concerns the target T1, recombinant transgelin (rTAGLN-Origene …). In words: western blot on recombinant transgelin.
In test [3] the target is T2, recombinant transgelin (rTAGLN) (Homo sapiens, UniProt Q01995).
T2 construct: purchased Origene TP302448
Format: binding. The following applies: 4-500 ng rTAGLN per well.

For the next test, the target named is T3, ompK36 (Klebsiella pneumoniae, UniProt Q48473).
T3 construct: 6xHis (N); made in house; host or cells: E. coli BL21 (DE3), pET28b
In words: ELISA of 7816 IgG against coated ompK36. Format: binding. The settings on record: full IgG1, 9 μg/ml; 8 μg OmpK36 coated; read at 450 nm. On the procedure: 8 μg of OmpK36 was coated on a 96 well ELISA plate in PBS, pH 5.0, overnight at 4° C. The day after, after three washes with PBS, the plate was blocked with PBS/BSA 1%, and purified 7816IgGs were added (9 μg/ml) to each well. After washing three timed with PBS/tween-20 0.1%, an anti-Human Fc antibody-HRP (SIGMA-Aldrich—diluted 1:8000), was added and incubated for 45-60 min. at 37° C. After five washes with PBS/Tween-20 0.1% 40 μL of TMB solution (Pierce) in every well was added and incubated for 15 min. at 37° C. After addition of 40 μl of Stop Solution (H2SO4 0.1 M) in every well the plates were read at 450 nm.

Test [4] addresses T4, transgelin 1 (SM22) from coronary plaque lysate (human, UniProt Q01995 2-201).
T4 construct: also called TAGLN; spots C1 and C2
Kind of test: 2D electrophoresis western blot of coronary plaque lysate with 7816FLAG, spots identified by MALDI-ToF.

For a further test, the target named is T5, purified OmpK36 (Klebsiella pneumoniae, UniProt Q48473).
T5 construct: made in house; host or cells: E. coli BL21 (DE3), pET28b (BamHI/XhoI cloning)
In words: Western blot of purified OmpK36 with recombinant Fabs. In kind it is binding. The following applies: 400 ng OmpK36His per lane; Fabs at 10 μg/L; blocking PBS/BSA10%. On the procedure:
400 ng of purified OmpK36His was loaded on polyacrylamide gel (all lanes) and SDS-PAGE was performed. Proteins were blotted on PVDF membrane for 2 h at 350 mA. After blocking with PBS/BSA10% the membrane was cut to single lanes and each lane was incubated for 1 h with Fabs at 10 μg/L. After three washes membrane was incubated with anti-Human Light Chain K antibody (Sigma).

T1 sequence (Q01995 whole entry): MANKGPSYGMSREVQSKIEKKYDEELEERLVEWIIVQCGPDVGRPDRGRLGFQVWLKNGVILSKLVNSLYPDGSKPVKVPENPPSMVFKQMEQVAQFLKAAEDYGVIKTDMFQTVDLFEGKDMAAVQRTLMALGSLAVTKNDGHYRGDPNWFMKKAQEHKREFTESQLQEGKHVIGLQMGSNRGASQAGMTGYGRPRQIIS
T2 sequence (Q01995 whole entry): as above
T4 sequence (Q01995 2-201 limits assumed): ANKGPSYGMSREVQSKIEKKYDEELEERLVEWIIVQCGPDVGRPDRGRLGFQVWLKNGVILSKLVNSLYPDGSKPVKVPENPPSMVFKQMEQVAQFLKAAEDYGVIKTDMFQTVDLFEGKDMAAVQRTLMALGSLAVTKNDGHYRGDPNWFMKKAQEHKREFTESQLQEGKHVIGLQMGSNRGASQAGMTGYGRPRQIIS

B1: Fab 1630 (Fab, V domains shown)
VH: GGGLVKPGGSLRLSCTASGFTFSNGWMSWVRQAPGKGLEWVGRIRSNPDGGTTDYAAPFKGRFTISRDDSKNTLFLQVTSLKTEDTGVYYCITDRGDWKWGVPRDLTYWGQGTLVTVSS
VL: MAELTQSPDTLSLSPGERATLSCRASQSVDSNYLAWFQQKPGQAPRLLIYGAYSRATGIPDRFSGSGSGTDFTLTISRLEPEDFVVYYCQQYLSPPITFGQGTRLETKR
On to B1, for which the binding result in test [1] is “binds”.

B2: Fab 7816 (Fab, V domains shown)
VH: LESGPGQVKPSQTLSLTCTVSGGSIGSGSYSWNWIRQPAGRGLEWIGRISDSGNTNFNPSLKSRVTMSVDTSKNQFALKLTSVTAADTATYFCARGRGILTGLFDYWGQGSLVSVSS
VL: SPDSLAVSPGGRATIKCASSQSVLDNSNHKNSLAWYQQKPGLPPKLLIYWASTRYSGVPDRFSGSGSGTDFTLTINNLQAADVAVYFCQQYYSTPWTFGQGTKVE
notes: also called Fab E7816
For the molecule B2, the binding result in test [1] is “binds”.

B3: IgG7816 (antibody, V domains shown)
VH: LESGPGQVKPSQTLSLTCTVSGGSIGSGSYSWNWIRQPAGRGLEWIGRISDSGNTNFNPSLKSRVTMSVDTSKNQFALKLTSVTAADTATYFCARGRGILTGLFDYWGQGSLVSVSS
VL: SPDSLAVSPGGRATIKCASSQSVLDNSNHKNSLAWYQQKPGLPPKLLIYWASTRYSGVPDRFSGSGSGTDFTLTINNLQAADVAVYFCQQYYSTPWTFGQGTKVE
B3: the binding result in test [2] is given as “binds”.

B4: IgG7816: heavy and light chains of Fab 7816 cloned in pAc-k-Fc vector, expressed as IgG in Sf9 insect cells (antibody, V domains shown)
VH: LESGPGQVKPSQTLSLTCTVSGGSIGSGSYSWNWIRQPAGRGLEWIGRISDSGNTNFNPSLKSRVTMSVDTSKNQFALKLTSVTAADTATYFCARGRGILTGLFDYWGQGSLVSVSSASTKGPSVFPLAPSSKSTSGGTAALGCLVKD
VL: SPDSLAVSPGGRATIKCASSQSVLDNSNHKNSLAWYQQKPGLPPKLLIYWASTRYSGVPDRFSGSGSGTDFTLTINNLQAADVAVYFCQQYYSTPWTFGQGTKVE
As to B4, the “binding to human transgelin in Western blot” value in test [3] is “positive band is visible”. Moreover, the “binding to ompK36 in ELISA” value with ompK36 is given as “binds specifically to ompK36”.

B5: 7816Fab-FLAG (Fab, V domains shown)
VH: LESGPGQVKPSQTLSLTCTVSGGSIGSGSYSWNWIRQPAGRGLEWIGRISDSGNTNFNPSLKSRVTMSVDTSKNQFALKLTSVTAADTATYFCARGRGILTGLFDYWGQGSLVSVSS
VL: SPDSLAVSPGGRATIKCASSQSVLDNSNHKNSLAWYQQKPGLPPKLLIYWASTRYSGVPDRFSGSGSGTDFTLTINNLQAADVAVYFCQQYYSTPWTFGQGTKVE
Consider B5, for which the binding result in test [4] is recorded as “binds”.

B6: Fab 248: human recombinant Fab; heavy chain SEQ ID NO:14, light chain SEQ ID NO:16 (antibody, listed as Homo sapiens)
heavy: LESGGGLVKPGGSLRLSCAASGFTFSDYYMSWIRQAPGKGLEFISYISSGGDTIHHADSVKGRFTISRDNAKKSLYLQMNSLRVEDTAVYYCACRGVWGQGT
light: SPATVSVSPGERATLSCRASQSISFHLAWYQQKPGQAPSLLIYGTSTRATGIPARFSGSGSGTEFTLTISSLQSEDSAVYYCQQYHNWPPLTFGGGT
Turning to B6, in the test with purified OmpK36, the “reactivity with purified OmpK36 in western-blot” value is “react with purified OmpK36”.

B7: Fab1630: human recombinant Fab from plaque 12 library (ID12LIB); HC SEQ ID NO:10, LC SEQ ID NO:12 (antibody, listed as Homo sapiens)
heavy: GGGLVKPGGSLRLSCTASGFTFSNGWMSWVRQAPGKGLEWVGRIRSNPDGGTTDYAAPFKGRFTISRDDSKNTLFLQVTSLKTEDTGVYYCITDRGDWKWGVPRDLTYWGQGTLVTVSSASTKGPSVFPLAPSSKSTSGGTAALGCLVKDYFPEPVTV
light: AMAELTQSPDTLSLSPGERATLSCRASQSVDSNYLAWFQQKPGQAPRLLIYGAYSRATGIPDRFSGSGSGTDFTLTISRLEPEDFVVYYCQQYLSPPITFGQGTRLETKRTVAAPSVFIFPPSD
Take B7: the “binding to human transgelin in Western blot” value in test [3] was “recognize human transgelin”. The “reactivity with purified OmpK36 in western-blot” value with purified OmpK36 is “react with purified OmpK36”.
